In US20170029530A1 (AbbVie / Abbott, published 2017):
“And” between values parts separate entries of the source, which are not always exact repeats. Equal values may be shown once.

T1: cDPEP3 (Macaca fascicularis, UniProt Q4R7M2)
T1 construct: extracellular domain; also called cynomolgus DPEP3-His; cynomolgus DPEP3 ECD with histidine tag
T1 sequence (single chain, looked up): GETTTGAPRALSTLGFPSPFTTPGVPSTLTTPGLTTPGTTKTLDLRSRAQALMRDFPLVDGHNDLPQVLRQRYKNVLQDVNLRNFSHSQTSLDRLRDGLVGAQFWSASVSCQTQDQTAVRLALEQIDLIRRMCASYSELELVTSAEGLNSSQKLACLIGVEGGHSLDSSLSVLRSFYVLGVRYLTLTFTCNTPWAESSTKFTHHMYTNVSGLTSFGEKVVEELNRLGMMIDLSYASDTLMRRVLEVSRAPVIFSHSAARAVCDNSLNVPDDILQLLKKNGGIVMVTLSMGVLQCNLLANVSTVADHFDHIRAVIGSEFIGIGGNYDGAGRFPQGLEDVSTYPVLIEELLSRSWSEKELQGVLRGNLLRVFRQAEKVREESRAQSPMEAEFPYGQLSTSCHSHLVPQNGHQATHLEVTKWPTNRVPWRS

T2: mDPEP3 (limits assumed)
T2 construct: also called mouse DPEP3-His; mouse DPEP3 ECD with histidine tag
T2 single chain: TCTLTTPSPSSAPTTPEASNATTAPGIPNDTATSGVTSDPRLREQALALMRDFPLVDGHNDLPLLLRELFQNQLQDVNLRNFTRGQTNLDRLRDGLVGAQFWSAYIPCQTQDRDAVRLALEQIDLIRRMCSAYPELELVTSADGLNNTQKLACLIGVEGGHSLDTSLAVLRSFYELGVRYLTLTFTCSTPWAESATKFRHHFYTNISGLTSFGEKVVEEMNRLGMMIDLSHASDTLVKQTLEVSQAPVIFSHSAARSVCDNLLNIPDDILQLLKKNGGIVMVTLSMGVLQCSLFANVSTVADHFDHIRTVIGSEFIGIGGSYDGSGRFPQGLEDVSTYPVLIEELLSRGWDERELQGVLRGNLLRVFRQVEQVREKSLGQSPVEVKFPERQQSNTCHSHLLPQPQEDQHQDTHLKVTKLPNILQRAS

T3: rat DPEP3 ECD with histidine tag (rat, UniProt Q5U2X4 36-459, limits assumed)
T3 construct: also called rDPEP3-His; ratDPEP3-His; not shown: histidine tag
T3 sequence: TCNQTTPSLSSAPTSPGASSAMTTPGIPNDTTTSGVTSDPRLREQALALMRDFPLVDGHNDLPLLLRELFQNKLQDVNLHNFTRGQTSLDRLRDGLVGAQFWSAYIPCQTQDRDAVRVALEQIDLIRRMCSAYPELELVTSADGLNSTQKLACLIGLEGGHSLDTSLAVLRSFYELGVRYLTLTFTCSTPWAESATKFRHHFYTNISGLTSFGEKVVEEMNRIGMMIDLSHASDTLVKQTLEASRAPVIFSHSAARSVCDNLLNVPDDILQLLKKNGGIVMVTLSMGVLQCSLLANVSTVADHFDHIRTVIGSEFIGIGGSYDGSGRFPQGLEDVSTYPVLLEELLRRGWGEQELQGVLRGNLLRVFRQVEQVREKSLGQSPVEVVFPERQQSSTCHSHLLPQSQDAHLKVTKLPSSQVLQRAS

T4: hDPEP3-ECD-His (human, UniProt Q9H4B8 36-463)
T4 construct: also called hDPEP3-His; monomeric hDPEP3-His antigen; not shown: histidine tag
T4 sequence: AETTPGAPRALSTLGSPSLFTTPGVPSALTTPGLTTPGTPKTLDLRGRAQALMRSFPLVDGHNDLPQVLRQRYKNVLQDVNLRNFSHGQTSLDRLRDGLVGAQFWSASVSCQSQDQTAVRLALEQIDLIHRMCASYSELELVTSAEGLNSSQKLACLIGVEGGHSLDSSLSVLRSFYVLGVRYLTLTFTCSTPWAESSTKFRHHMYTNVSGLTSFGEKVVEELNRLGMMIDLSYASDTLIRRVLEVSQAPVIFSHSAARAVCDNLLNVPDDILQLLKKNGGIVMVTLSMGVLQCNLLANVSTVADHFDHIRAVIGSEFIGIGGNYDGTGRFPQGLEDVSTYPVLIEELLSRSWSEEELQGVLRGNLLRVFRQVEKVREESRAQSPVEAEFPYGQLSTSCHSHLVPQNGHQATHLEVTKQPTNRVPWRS


Columns and labels:
cDPEP3 = molecular target: T1, cDPEP3; experiment: ELISA, coated antigen
mDPEP3 = molecular target: T2, mDPEP3; experiment: ELISA, coated antigen
[1] = molecular target: T3, rat DPEP3 ECD with histidine tag; experiment: ELISA, coated antigen
[2] = molecular target: T5, hDPEP2 ECD with histidine tag (human, UniProt Q9H4A9 33-463); experiment: ELISA, coated antigen
T5 construct: also called hDPEP2-His; not shown: histidine tag

hDPEP3-ECD-His = molecular target: T4, hDPEP3-ECD-His; experiment: BLI ForteBio RED, 200 nM hDPEP3-His, estimated grade
Outline: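 Antibodies were captured on anti-mouse Fc biosensors to 0.3-1 units, then exposed to hDPEP3-His for a 4 min association and a 3 min dissociation at 1000 rpm. A control mouse IgG response was subtracted, and KD was estimated qualitatively from the curves. Sensors were regenerated with 10 mM glycine, pH 1.7.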

T5 sequence (Q9H4A9 33-463): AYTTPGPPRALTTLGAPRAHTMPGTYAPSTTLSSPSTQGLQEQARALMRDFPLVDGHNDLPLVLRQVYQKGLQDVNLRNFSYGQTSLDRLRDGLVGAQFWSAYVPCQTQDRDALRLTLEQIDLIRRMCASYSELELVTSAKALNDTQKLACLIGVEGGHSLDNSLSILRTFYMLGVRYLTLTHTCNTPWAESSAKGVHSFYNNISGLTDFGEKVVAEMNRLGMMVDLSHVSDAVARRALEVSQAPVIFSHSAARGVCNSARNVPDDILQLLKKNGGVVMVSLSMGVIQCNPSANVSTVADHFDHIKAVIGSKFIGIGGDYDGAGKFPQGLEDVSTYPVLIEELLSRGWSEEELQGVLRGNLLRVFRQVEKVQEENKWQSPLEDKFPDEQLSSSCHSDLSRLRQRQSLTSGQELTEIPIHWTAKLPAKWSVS

Binder | binding result (cDPEP3) | binding result (mDPEP3) | binding result [1] | binding result [2] | Kd (hDPEP3-ECD-His)
SC34.21 (antibody, mouse IgG1, V domains shown) VH: EVQLQQSGPELVKPGTSMKISCKASGYSFTGYTMNWVKQSHGKNLEWIGLIYPYNDDTRYNRKFKGKATLTVDKSSNTAYMELLSLTSVDSAVCYCARGSYGSPFFDVWGAGTTVTVSS VL: not shown | no binding (tested: 1 ug/mL) | no binding (tested: 1 ug/mL) | no binding (tested: 1 ug/mL) | no binding (tested: 1 ug/mL) | < 5 nM
SC34.28 mouse anti-DPEP3 antibody (antibody, V domains shown, Mouse hybridoma antibody, the source of hSC34.28) VH: QVQLQQSGAELMKPGASVKISCKATGYTFSSYWIEWVKQRPGHGLEWIGEILPGSGNTYYNERFKDKATFTADTSSNTAYMQLSSLTSEDSAVYYCARRAAAYYSNPEWFAYWGQGTLVTVSA VL: QIVLTQSPAIMSASLGERVTMTCTASSSVNSFYLHWYQQKPGSSPKLWIHSTSNLASGVPGRFSGSGSGTSYSLTISSMEAEDAATYYCHQYHRSPYTFGGGTKLEIK | no binding (tested: 1 ug/mL) | no binding (tested: 1 ug/mL) | no binding (tested: 1 ug/mL) | no binding (tested: 1 ug/mL) | ≥ 5 nM and ≤ 10 nM
SC34.33 (antibody, mouse IgG1, V domains shown) VH: QVQLQQSGAELMKPGASVKISCKATGYTFSSYWIEWVKQRPGHGLEWIGEILPGSDKTYYNERFKDKATFTADTSSNTAYMQLSSLTSEDSAVYYCTRRAAAYYSNPEWFAYWGQGTLVTVSA VL: QIVLTQSPAIMSASLGERVTMTCTASSSVNSFYLHWYQQKPGSSPKLWIHSTSNLASGVPGRFSGSGSGTSYSLTISSMEAEDAATYYCHQYHRSPYTFGGGTKLEIK | no binding (tested: 1 ug/mL) | no binding (tested: 1 ug/mL) | no binding (tested: 1 ug/mL) | no binding (tested: 1 ug/mL) | ≥ 5 nM and ≤ 10 nM
SC34.41 (antibody, mouse IgG1, V domains shown) VH: EVKLVESGGGLVKPGGSLKLSCAASGFTFTSYTMSWVRQTPAKRLEWVATISTGGGNTYYPDIVKGRFTISRDNARSTLYLQMSSLRSEDSAMYYCARRFYDGSYNYWYFDVWGAGTTVTVSS VL: DIQMIQSPSSMFASLGDRVSLSCRASQGIRGNLDWYQQKPGGTIKLLIYSTSNLNSGVPSRFSGSGSGSDYSLTISSLESEDFADYYCLQRDAYPYTFGGGTKLEIK | no binding (tested: 1 ug/mL) | no binding (tested: 1 ug/mL) | no binding (tested: 1 ug/mL) | no binding (tested: 1 ug/mL) | > 10 nM
SC34.40 (antibody, mouse IgG2a, V domains shown) VH: EVQLQESGPGLAKPSQTLSLTCSVTGYSITSDYWNWIRKFPGNKLEYMGYITYSGSTYYNPSLKSRISITRDTSKNQYYLQLNSVTTEDTATYYCARARVYYYDGRYGRAMDYWGQGTSVTVSS VL: DIQMTQSPASLSASVGETVTMTCRASENIYSNLAWYQQKQGKSPQVLVYAATNLADGVPSRFSGSESGTQFSLKINSLQPEDFGSYYCQHFYGTPWTFGGGTKLEIK | no binding (tested: 1 ug/mL) | no binding (tested: 1 ug/mL) | no binding (tested: 1 ug/mL) | no binding (tested: 1 ug/mL) | ≥ 5 nM and ≤ 10 nM
SC34.49 (antibody, mouse IgG1, V domains shown) VH: EVQLQQSGPELVKPGSSVKISCKASGYTFTDYHMNWVKQSHGKSLEWIGNINPYYGVSTYNQNLKGTATLTVDKSSSTAYMELRGLTSEDSAVYYCVRRAMDSPRFAYWGQGTLVTVSA VL: DIQMTQSSSYLSVSLGGRVTITCKASEHINNWLAWYQQKPGNPPRLLISGATSLETGVPSRFSGSGSGKDYTLSITGLQTEDIATYFCQQYRSTPFTFGSGTKLEIK | no binding (tested: 1 ug/mL) | no binding (tested: 1 ug/mL) | no binding (tested: 1 ug/mL) | no binding (tested: 1 ug/mL) | > 10 nM
SC34.18 (antibody, mouse IgG2b, V domains shown) VH: QVSLKESGPGILQPSQTLSLTCSFSGFSLSTSGMGVGWIRQPSGKGLEWLANIWWDDSIYYNTALKSRLTISKDTSKNQVFLKIASVDTADTATYSCARIESYYGNRAWFAYWGQGTLVTVSA VL: DIVMTQSQKFMSTSVGDRVSITCKASQNVRTAVGWYQQKPGQSPKTLIYLASNRHTGVSDRFTGSGSGTDFTLTISNVQSEDLADYFCLQHWNYPWTFGGGTKLEIK | no binding (tested: 1 ug/mL) | no binding (tested: 1 ug/mL) | no binding (tested: 1 ug/mL) | no binding (tested: 1 ug/mL) | < 5 nM
SC34.50 (antibody, mouse IgG2b, V domains shown) VH: QVQLQQPGAELVRPGASVKLSCKASGYTFTSYWINWVKQRPGQGLEWIGNIFPSDSYTNYNQKFRDKATLTVDKSSSTAYMQLSSPTSEDSAVYYCTIRTYGNYFDYWGQGTTLTVSS VL: DIQMTQSSSSFSVSLGDRVTITCKASEDIYNRLAWYQQKPGNAPRLLISGATSLETGVPSRFSGSGSGKDYTLSITSLQTEDVATYYCQQYWSTIFTFGSGTKLEIK | no binding (tested: 1 ug/mL) | no binding (tested: 1 ug/mL) | no binding (tested: 1 ug/mL) | no binding (tested: 1 ug/mL) | > 10 nM
SC34.26 (antibody, mouse IgG2b, V domains shown) VH: QVQLQQPGAELVKPGASVTLSCKASGYTFTSYYIYWVKQRPGEGLEWIGEINPSNGGPNFNERFKNKATLTVDKSSSTAYMQLSSLTSEDSAVYYCTRGLLYYDYDRGFAYWGQGTLVTVSA VL: not shown | no binding (tested: 1 ug/mL) | no binding (tested: 1 ug/mL) | no binding (tested: 1 ug/mL) | no binding (tested: 1 ug/mL) | > 10 nM
SC34.38 (antibody, mouse IgG2b, V domains shown) VH: QVQLQQPGAELVKPGASVTLSCKASGYTFTSYYMYWVKQRPGEGLEWIGEINPSNGGANFNERFKNKATLTVDKSSSTAYMQLSSLTSEDSAVFYCTRGLLYYDYDRGFAYWGQGTLVTVSA VL: not shown | no binding (tested: 1 ug/mL) | no binding (tested: 1 ug/mL) | no binding (tested: 1 ug/mL) | no binding (tested: 1 ug/mL) | < 5 nM
SC34.53 mouse anti-hDPEP3 antibody (antibody, V domains shown, Mouse hybridoma antibody) VH: QVQLQQPGAELVKPGASVTLSCKASGYTFTSYYIYWVKQRPGEGLEWIGEIDPSNGGPNFNDRFKNKATLTVDKSSSTAYMQLSSLTSEDSAVYYCTRGLLYYDYDRGFAYWGQGTLVTVSA VL: not shown | no binding (tested: 1 ug/mL) | no binding (tested: 1 ug/mL) | no binding (tested: 1 ug/mL) | no binding (tested: 1 ug/mL) | ≥ 5 nM and ≤ 10 nM
